Values of other authors as cited in article PMC11401910, “Dual client binding sites in the ATP-independent chaperone SurA” (Nature Communications, 2024).

Molecular target: OmpX (Escherichia coli) (UniProt P0A917)
Conditions: cited from earlier work

Sequence of OmpX (Escherichia coli) (P0A917 24-171): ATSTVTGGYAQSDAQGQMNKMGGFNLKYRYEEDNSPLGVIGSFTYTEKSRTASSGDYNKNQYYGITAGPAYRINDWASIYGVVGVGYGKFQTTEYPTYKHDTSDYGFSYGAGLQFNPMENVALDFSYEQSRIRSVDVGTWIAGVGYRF
Sequence of SurA (P0ABZ6 21-428): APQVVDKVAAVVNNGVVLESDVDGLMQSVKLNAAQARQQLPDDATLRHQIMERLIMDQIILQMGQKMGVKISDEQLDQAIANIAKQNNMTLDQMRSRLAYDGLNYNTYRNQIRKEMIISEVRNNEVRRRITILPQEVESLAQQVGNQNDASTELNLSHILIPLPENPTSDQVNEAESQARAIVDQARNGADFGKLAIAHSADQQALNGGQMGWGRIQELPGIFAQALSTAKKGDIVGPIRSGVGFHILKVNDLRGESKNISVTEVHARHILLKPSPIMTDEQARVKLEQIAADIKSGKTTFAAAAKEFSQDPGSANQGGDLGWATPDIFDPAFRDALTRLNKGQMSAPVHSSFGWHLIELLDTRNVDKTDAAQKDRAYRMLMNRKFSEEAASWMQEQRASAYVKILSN

In the case of SurA (from UniProt P0ABZ6), the Kd is listed as 1000 nM.
